Earlier results on one substance are cited in paper PMC4546937.

This series has as its target IL-13Ralpha1 (Homo sapiens) (UniProt P78552).
UniProt P78552, sequence (P78552 22-343): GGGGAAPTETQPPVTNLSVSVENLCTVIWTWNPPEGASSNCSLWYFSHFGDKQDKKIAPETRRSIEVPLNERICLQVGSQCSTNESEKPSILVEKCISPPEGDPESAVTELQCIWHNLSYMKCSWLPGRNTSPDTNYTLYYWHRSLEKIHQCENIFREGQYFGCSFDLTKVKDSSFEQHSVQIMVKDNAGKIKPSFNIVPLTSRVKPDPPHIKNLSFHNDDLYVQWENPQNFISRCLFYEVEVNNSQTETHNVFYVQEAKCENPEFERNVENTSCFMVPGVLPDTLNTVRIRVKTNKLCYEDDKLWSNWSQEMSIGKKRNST

In general, Kd refers to the equilibrium constant for the complex coming apart. On to IL-13 (from UniProt P35225), for which the Kd is 30 nM.
